Results from paper PMC6850650, “Superfolder mTurquoise2^ox optimized for the bacterial periplasm allows high efficiency in vivo FRET of cell division antibiotic targets” (Molecular Microbiology, 2019).
Residue numbers refer to the chain shown, from its start. Names may count otherwise.

T1: FtsL-mNG (E. coli, UniProt P0AEN4 1-121)
T1 construct: cell division protein FtsL of E. coli; The end of the FP is read from the printed name FtsL-mNG; source: E. coli, from plasmid, in the cells (FP in the periplasm); not shown: mNeongreen, C-terminal, kept
T1 sequence (looked up): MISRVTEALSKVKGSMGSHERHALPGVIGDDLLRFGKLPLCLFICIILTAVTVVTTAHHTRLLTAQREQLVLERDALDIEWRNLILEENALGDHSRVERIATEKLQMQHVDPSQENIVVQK

T2: FtsB-mNG (E. coli, UniProt P0A6S5 1-103)
T2 construct: cell division protein FtsB of E. coli; The end of the FP is read from the printed name; also called wild-type FtsB-mNG; source: E. coli, from plasmid, in the cells (FP in the periplasm); not shown: mNeongreen, C-terminal, kept
T2 sequence (looked up): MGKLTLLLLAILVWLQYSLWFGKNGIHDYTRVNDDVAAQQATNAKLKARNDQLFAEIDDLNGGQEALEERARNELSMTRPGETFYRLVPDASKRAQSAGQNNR

B1: FtsB-sfTq2^ox (natural protein, E. coli, UniProt P0A6S5 1-103, looked up)
chain: T2 sequence (looked up)
notes: cell division protein FtsB of E. coli; The end of the FP is read from the printed name FtsB-sfTq2^ox; source: E. coli, from plasmid, in the cells (FP in the periplasm); not shown: sfTq2^ox, C-terminal, kept
B2: FtsL-sfTq2^ox (natural protein, E. coli, UniProt P0AEN4 1-121, looked up)
chain: T1 sequence (looked up)
notes: cell division protein FtsL of E. coli; The end of the FP is read from the printed name; source: E. coli, from plasmid, in the cells (FP in the periplasm); not shown: sfTq2^ox, C-terminal, kept
B3: PBP5 (D,D-carboxypeptidase) fused to sfTq2 (donor copy) or mNeongreen (acceptor copy) (enzyme, E. coli, UniProt P0AEB2 30-403, looked up)
chain: DDLNIKTMIPGVPQIDAESYILIDYNSGKVLAEQNADVRRDPASLTKMMTSYVIGQAMKAGKFKETDLVTIGNDAWATGNPVFKGSSLMFLKPGMQVPVSQLIRGINLQSGNDACVAMADFAAGSQDAFVGLMNSYVNALGLKNTHFQTVHGLDADGQYSSARDMALIGQALIRDVPNEYSIYKEKEFTFNGIRQLNRNGLLWDNSLNVDGIKTGHTDKAGYNLVASATEGQMRLISAVMGGRTFKGREAESKKLLTWGFRFFETVNPLKVGKEFASEPVWFGDSDRASLGVDKDVYLTIPRGRMKDLKASYVLNSSELHAPLQKNQVVGTINFQLDGKTIEQRPLVVLQEIPEGNFFGKIIDYIKLMFHHWFG
notes: PBP5 (D,D-carboxypeptidase, encoded by dacA) of E. coli; Self-association measured between two differently fused copies (sfTq2-PBP5 and mNG-PBP5); PBP5's own signal peptide is probably replaced by that of DsbA (surmised); also called sfTq2-PBP5; DsbA^ss-FP-PBP5; source: E. coli CS109 ΔdacA, from plasmid, in the periplasm of the cells; not shown: sfTq2 (on the donor copy), N-terminal, kept; …
B4: PBP5^S44G (inactive mutant) fused to sfTq2 (donor copy) or mNeongreen (acceptor copy) (enzyme, E. coli, UniProt P0AEB2 30-403, looked up)
chain: B3 chain with S44G
notes: PBP5 (D,D-carboxypeptidase, encoded by dacA) of E. coli with S44G; Self-association measured between two differently fused copies; source: E. coli CS109 ΔdacA, from plasmid, in the periplasm of the cells; not shown: sfTq2 (on the donor copy), N-terminal, kept; mNeongreen (on the acceptor copy), N-terminal, kept

Legend:
Assay in all cases: FRET or BRET; in vivo in the periplasm of E. coli; donor sfTq2 or sfTq2^ox, acceptor mNG, each fused to one partner; emission spectra taken with a fluorometer and unmixed, EfA from sensitised emission; PBP5 dimerisation in CS109 ΔdacA, controls in LMC500 and CS109 ΔdacA
FtsL-mNG = target: T1, FtsL-mNG; settings: partners not purified
FtsB-mNG = target: T2, FtsB-mNG; settings: partners not purified
[1] = target: the molecule itself

Binder | EfA (FRET efficiency) [1] [%] | other results
B1 | – | EfA (FRET efficiency) (FtsL-mNG): 19.2%
B2 | – | EfA (FRET efficiency) (FtsB-mNG): 15.6%
B3 | 4.2 | –
B4 | 8.8 | –
